These results are taken from US20180258174A1 (INSITUT NATIONAL DE LA SANTE ET DE LA RECHERCHE MEDICALE …, published 2018).

The experiment deals with RLIQ108D/CD122 complex (RLIQ108D bound to immobilized CD122) (human, UniProt P14784 27-240, limits assumed). Description: SPR, sequential binding on immobilized CD122. As to the method: The SPR experiments were performed with a BIAcore 3000 biosensor (BIAcore, Uppsala, Sweden). Recombinant proteins (hCD122, hCD132, Fc-IL-15Rα) were covalently linked to CM5 sensor chips, and the binding of increasing concentrations of ligands (IL-15, IL-15Q108D, RLI, RLIQ108D, RLIN65K) was monitored. Analysis of sensorgrams was performed using BIAlogue kinetics evaluation software.
RLIQ108D/CD122 complex (RLIQ108D bound to immobilized CD122), sequence (chain, as listed by the source limits assumed, chain 1 of 2): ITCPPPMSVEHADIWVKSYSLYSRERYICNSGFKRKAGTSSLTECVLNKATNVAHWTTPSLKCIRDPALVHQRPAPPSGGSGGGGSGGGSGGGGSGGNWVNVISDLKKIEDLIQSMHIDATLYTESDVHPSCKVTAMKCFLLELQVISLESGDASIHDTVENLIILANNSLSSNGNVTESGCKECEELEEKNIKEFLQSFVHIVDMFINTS
RLIQ108D/CD122 complex (RLIQ108D bound to immobilized CD122), sequence (P14784 27-240 limits assumed, chain 2 of 2): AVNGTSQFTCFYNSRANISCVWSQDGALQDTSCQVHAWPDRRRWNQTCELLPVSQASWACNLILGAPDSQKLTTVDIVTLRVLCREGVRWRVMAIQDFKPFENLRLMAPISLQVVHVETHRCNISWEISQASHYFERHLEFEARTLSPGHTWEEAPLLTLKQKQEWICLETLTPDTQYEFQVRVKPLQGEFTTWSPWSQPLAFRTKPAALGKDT
In order to inhibit IL-2 and IL-15 dependent effector functions, we developed an original approach targeting the CD122/CD132 dimer, by combining an increased affinity for CD122 and an impaired recruitment of CD132. […] We have thus generated RLIQ108D, a fusion molecule between IL-15Q108D mutein covalently linked to the soluble IL-15Rα sushi domain. As a control, RLIN65K was produced in which CD122 recruitment was abrogated by introducing the N65K mutation in the IL-15 moiety. […] By contrast, RLIN65K was unable to bind CD122 (FIG. 11C). Furthermore, soluble CD132 binding to RLI/CD122 complex was completely abrogated when introducing in RLI the Q108D substitution (RLIQ108D) (FIG. 11E). […] As a control, the binding of the non-blocking CF-1 anti-CD122 mAb was unaffected by either RLIQ108D or RLIN65K (FIG. 12A).

B1: hCD132 (recombinant, soluble CD132 chain) (receptor, human, UniProt P31785 23-262, looked up)
chain: LNTTILTPNGNEDTTADFFLTTMPTDSLSVSTLPLPEVQCFVFNVEYMNCTWNSSSEPQPTNLTLHYWYKNSDNDKVQKCSHYLFSEEITSGCQLQKKEIHLYQTFVVQLQDPREPRRQATQMLKLQNLVIPWAPENLTLHKLSESQLELNWNNRFLNHCLEHLVQYRTDWDHSWTEQSVDYRHKFSLPSVDGQKRYTFRVRSRFNPLCGSAQHWSEWSHPIHWGSNTSKENPFLFALEA
With B1, the binding result is on record as “no binding”.
